Assay results published in article PMC6733935, “A convenient and efficient total solid-phase synthesis of DOTA-functionalized tumor-targeting peptides for PET imaging of cancer” (EJNMMI Research, 2019).
Numbered stars: 1 amine (or outer) side, 2 acyl side, 3 side chain; on linkers, the order of the positions; unused ones are H or OH. Square brackets hold non-standard residues; d marks the D form. Peptide text beside a SMILES is read from it. * marks the point of attachment. DOTA = O=C(O)CN1CCN(CC(=O)O)CCN(CC(=O)*)CCN(CC(=O)O)CC1; Cha = N[C@@H](CC1CCCCC1)C(=O)O; X1 = O=C(CCC(=O)[*:2])CN[*:1]; 4Abz = Nc1ccc(C(=O)O)cc1; Nle = CCCC[C@H](N)C(=O)O; Ahx = NCCCCCC(=O)O

What was measured:
in vivo = test: in vivo; parameters: species or system Balb/c mice; conditions: Balb/c, mouse, iv
Method: Approval for the animal protocol used in this study was obtained from the Institutional Animal Care and Use Committee. Animal studies were conducted according to the international regulations governing the safe and proper use of laboratory animals. In vivo biodistribution were performed on healthy Balb/c mice (n = 3–5 in each group, body weight 19–22 g) at 1 and 2 h after intravenous injection of the HPLC-purified radiopeptide (100 μL, 15–20 μCi, total peptide dose ~ 20 ng) via the lateral tail vein. The mice were sacrificed by cervical dislocation at specified time points and blood samples were withdrawn with a syringe from the heart. Major organs such as lungs, stomach, spleen, pancreas, intestines, liver, kidneys, etc. were isolated, weighed, and radioactivity in each organs and tissues were measured using a γ-scintillation counter. Uptake of radioactivity in the tissues and organs was expressed as the percent injected dose per gram (% ID/g) of tissue/organ, which was calculated by comparison with standard solutions representing 10% of the injected dose per animal. For the clearance studies, radioactivity in the urine with bladder and feces is expressed as the percent of the injected dose per tissue (% ID). Values are expressed as mean ± SD for a group of 3-5 animals at each time point.

[1] = target: T1, BN/GRP receptor-positive MDA-MB-231 human breast cancer cells (Homo sapiens, UniProt P30550); test: Saturation binding assay on MDA-MB-231 cells; conditions: n = 3-5 experiments; for Bmax (apparent number of binding sites per cell): SD < 15%; for Kd: ~300,000 cells, 0.1-25 nM radiopeptide, 60 min, room temperature, mean ± SD
T1 construct: BN/GRP receptor-positive MDA-MB-231, MCF7, T47D human breast cancer, and PC3 human prostate cancer lines; host or cells: MDA-MB-231, MCF7, T47D (human breast cancer), PC3 (human prostate cancer); intact cells
Method: The cell binding of ^68Ga-radiolabeled peptides into BN/GRP receptor-positive MDA-MB-231, MCF7, T47D human breast cancer, and PC3 human prostate cancer lines (American Type Culture Collection, Rockville, MD, USA) was performed according to the method described previously. In brief, ∼ 300,000 cells (in 300 μL in low-serum media) were incubated with various amounts of radiopeptides, ranging between 0.1 and 25 nM of peptide (prepared from the serial dilutions of HPLC-purified radiopeptides), in duplicate for 60 min at room temperature. The initial concentrations of ^68Ga-labeled peptides were determined according to a well-established HPLC technique with simultaneous detection by UV absorbance. As the amount of BN peptide in the reaction mixture was too small to be detected by UV absorption at 220 nm, the radioactive peptide chromatograms from the HPLC analysis were compared (with UV chromatograms) with those of known concentrations of the corresponding nonradioactive peptides for the mass determination. Incubation was terminated by dilution with cold saline (300 μL) and the cells were pelleted by centrifugation. The cell pellets was then rapidly washed with cold saline to remove any unbound peptide and centrifuged to collect supernatants. Radioactivity in the cell pellet and the washings was measured in a γ-counter. Non-specific binding was determined in the presence of ~ 200-fold molar excess of unlabeled BN peptide. Specific binding is calculated by subtracting the non-specifically bound radioactivity from that of the total binding. The dissociation constant (Kd) was calculated using a plot of cell bound activity versus the concentration of the radioligand using GraphPad Prism software (GraphPad Software Inc., San Diego, CA, USA).

[2] = type: physicochemical
Method: For lipophilicity determination, each HPLC-purified radiopeptide (~ 20 μL, ∼ 25 μCi) was added into a glass tube containing an equal volume mixture of n-octanol and water (1 mL each). The samples were vigorously vortexed for 5 min and subsequently centrifuged (5000 rpm, 5 min) to yield two immiscible layers. Duplicate samples (100 μL) from each layer were carefully taken (to avoid cross-contamination between the layers) for radioactivity measurement using a γ-counter. Partition coefficient was determined by the function: partition coefficient = Log10 (radioactivity in octanol layer/radioactivity in aqueous layer).

Compound	%ID excreted in Feces (in vivo; 1 h) [%ID]	%ID excreted in Urine (in vivo; 1 h) [%ID]	Uptake in Blood (in vivo; 1 h) [%ID/g]	Uptake in Bone (in vivo; 1 h) [%ID/g]	Uptake in Intestines (measured without their contents) (in vivo; 1 h) [%ID/g]	Uptake in Kidneys (in vivo; 1 h) [%ID/g]	Uptake in Liver (in vivo; 1 h) [%ID/g]	Uptake in Lungs (in vivo; 1 h) [%ID/g]	Uptake in Pancreas (in vivo; 1 h) [%ID/g]	Uptake in Spleen (in vivo; 1 h) [%ID/g]	Uptake in Stomach (in vivo; 1 h) [%ID/g]	%ID excreted in Feces (in vivo; 2 h) [%ID]	%ID excreted in Urine (in vivo; 2 h) [%ID]	Uptake in Blood (in vivo; 2 h) [%ID/g]	Uptake in Bone (in vivo; 2 h) [%ID/g]	Uptake in Intestines (measured without their contents) (in vivo; 2 h) [%ID/g]	Uptake in Kidneys (in vivo; 2 h) [%ID/g]	Uptake in Liver (in vivo; 2 h) [%ID/g]	Uptake in Lungs (in vivo; 2 h) [%ID/g]	Uptake in Pancreas (in vivo; 2 h) [%ID/g]	further results
CCCC[C@H](NC(=O)[C@H](Cc1c[nH]cn1)NC(=O)[C@H](CC1CCCCC1)NC(=O)[C@@H](NC(=O)[C@H](C)NC(=O)[C@H](Cc1c[nH]c2ccccc12)NC(=O)[C@H](CCC(N)=O)NC(=O)[C@H](CS)NC(=O)CNC(=O)CNC(=O)CCC(=O)CNC(=O)CN1CCN(CC(=O)O)CCN(CC(=O)O)CCN(CC(=O)O)CC1)C(C)C)C(=O)N[C@@H](CCSC)C(N)=O [^68Ga-DOTA-ALA-BN Tris-, metal not drawn] ({DOTA}-[X1]GGCQWAV[Cha]H[Nle]M-NH2)	1.03 ± 0.12	71.0 ± 12.45	0.88 ± 0.14	0.14 ± 0.03	0.85 ± 0.13	3.83 ± 0.67	1.78 ± 0.26	0.42 ± 0.10	0.98 ± 0.13	0.14 ± 0.03	1.44 ± 0.26	0.77 ± 0.10	78.0 ± 15.0	0.27 ± 0.02	0.08 ± 0.01	0.64 ± 0.14	2.76 ± 0.49	0.86 ± 0.17	0.19 ± 0.03	0.82 ± 0.12	Uptake in Spleen (in vivo; 2 h): 0.10 ± 0.02 %ID/g; Uptake in Stomach (in vivo; 2 h): 0.53 ± 0.09 %ID/g; Bmax (apparent number of binding sites per cell) [1]: 1.12 × 10^5 sites/cell; Kd [1]: 14.7 ± 2.24 nM; Log P (octanol/water) [2]: − 0.88 ± 0.07
CCCC[C@H](NC(=O)[C@H](Cc1c[nH]cn1)NC(=O)[C@H](CC1CCCCC1)NC(=O)[C@@H](NC(=O)[C@H](C)NC(=O)[C@H](Cc1c[nH]c2ccccc12)NC(=O)[C@H](CCC(N)=O)NC(=O)[C@H](CS)NC(=O)CNC(=O)CNC(=O)c1ccc(NC(=O)CN2CCN(CC(=O)O)CCN(CC(=O)O)CCN(CC(=O)O)CC2)cc1)C(C)C)C(=O)N[C@@H](CCSC)C(N)=O [^68Ga-DOTA-Abz-BN Tris-, metal not drawn] ({DOTA-4Abz}-GGCQWAV[Cha]H[Nle]M-NH2)	0.90 ± 0.10	43.0 ± 8.70	0.66 ± 0.13	0.22 ± 0.05	0.79 ± 0.16	4.0 ± 0.82	1.59 ± 0.23	0.58 ± 0.10	1.48 ± 0.12	0.11 ± 0.01	1.82 ± 0.36	0.59 ± 0.08	50.0 ± 3.45	0.31 ± 0.05	0.12 ± 0.01	0.61 ± 0.09	2.86 ± 0.37	0.91 ± 0.15	0.40 ± 0.08	0.97 ± 0.05	Uptake in Spleen (in vivo; 2 h): 0.10 ± 0.01 %ID/g; Uptake in Stomach (in vivo; 2 h): 0.52 ± 0.12 %ID/g; Bmax (apparent number of binding sites per cell) [1]: 5.89 × 10^5 sites/cell; Log P (octanol/water) [2]: − 1.04 ± 0.10
CCCC[C@H](NC(=O)[C@H](Cc1c[nH]cn1)NC(=O)[C@H](CC1CCCCC1)NC(=O)[C@@H](NC(=O)[C@H](C)NC(=O)[C@H](Cc1c[nH]c2ccccc12)NC(=O)[C@H](CCC(N)=O)NC(=O)[C@H](CS)NC(=O)CNC(=O)CNC(=O)CCCCCNC(=O)CN1CCN(CC(=O)O)CCN(CC(=O)O)CCN(CC(=O)O)CC1)C(C)C)C(=O)N[C@@H](CCSC)C(N)=O [^68Ga-DOTA-Ahx-BN Tris-, metal not drawn] ({DOTA-Ahx}-GGCQWAV[Cha]H[Nle]M-NH2)	0.83 ± 0.19	74.0 ± 8.03	0.29 ± 0.05	0.17 ± 0.03	0.67 ± 0.12	2.89 ± 0.41	1.12 ± 0.30	0.36 ± 0.10	2.0 ± 0.27	0.09 ± 0.01	1.71 ± 0.19	0.69 ± 0.10	69.0 ± 5.15	0.17 ± 0.02	0.09 ± 0.01	0.43 ± 0.09	1.63 ± 0.24	0.53 ± 0.09	0.22 ± 0.05	1.25 ± 0.13	Uptake in Spleen (in vivo; 2 h): 0.06 ± 0.0 %ID/g; Uptake in Stomach (in vivo; 2 h): 0.48 ± 0.06 %ID/g; Bmax (apparent number of binding sites per cell) [1]: 5.27 × 10^5 sites/cell; Kd [1]: 11.6 ± 3.05 nM; Log P (octanol/water) [2]: − 1.18 ± 0.06
